Measured values published in patent publication US20260174875A1 (Novo Nordisk A/S, priority 2023, published 2026).
Numbered stars: 1 amine (or outer) side, 2 acyl side, 3 side chain; on linkers, the order of the positions; unused ones are H or OH. Square brackets hold non-standard residues; d marks the D form. Side chains are listed from the residue outwards. * marks the point of attachment. C20 diacid = O=C(O)CCCCCCCCCCCCCCCCCCC(=O)*; C18 diacid = O=C(O)CCCCCCCCCCCCCCCCC(=O)*; γGlu = O=C(O)[C@H](CCC(=O)[*:2])N[*:1]; AEEA = NCCOCCOCC(=O)O; Aib = CC(C)(N)C(=O)O

T1: human amylin-3(a) receptor (human, UniProt P30988 25-474; O60896 24-148)
T1 sequence (looked up) 1: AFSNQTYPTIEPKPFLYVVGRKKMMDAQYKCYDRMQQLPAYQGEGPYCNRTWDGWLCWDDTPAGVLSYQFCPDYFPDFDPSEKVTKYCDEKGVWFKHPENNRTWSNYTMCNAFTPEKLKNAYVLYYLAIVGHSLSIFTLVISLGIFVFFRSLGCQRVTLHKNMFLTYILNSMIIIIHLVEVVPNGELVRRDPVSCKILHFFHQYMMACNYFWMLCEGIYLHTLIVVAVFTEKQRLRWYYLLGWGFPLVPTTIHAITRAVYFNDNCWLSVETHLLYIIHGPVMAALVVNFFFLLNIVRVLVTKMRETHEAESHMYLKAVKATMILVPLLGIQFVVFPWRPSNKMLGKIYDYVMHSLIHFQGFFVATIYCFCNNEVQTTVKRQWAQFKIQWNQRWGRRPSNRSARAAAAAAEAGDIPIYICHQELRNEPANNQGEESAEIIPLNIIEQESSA
T1 sequence (looked up) 2: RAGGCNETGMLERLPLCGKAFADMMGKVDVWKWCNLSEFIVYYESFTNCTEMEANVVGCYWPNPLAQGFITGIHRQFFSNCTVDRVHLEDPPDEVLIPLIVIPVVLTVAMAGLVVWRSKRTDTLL

T2: human GIP receptor (human, UniProt P48546 22-466)
T2 sequence (looked up): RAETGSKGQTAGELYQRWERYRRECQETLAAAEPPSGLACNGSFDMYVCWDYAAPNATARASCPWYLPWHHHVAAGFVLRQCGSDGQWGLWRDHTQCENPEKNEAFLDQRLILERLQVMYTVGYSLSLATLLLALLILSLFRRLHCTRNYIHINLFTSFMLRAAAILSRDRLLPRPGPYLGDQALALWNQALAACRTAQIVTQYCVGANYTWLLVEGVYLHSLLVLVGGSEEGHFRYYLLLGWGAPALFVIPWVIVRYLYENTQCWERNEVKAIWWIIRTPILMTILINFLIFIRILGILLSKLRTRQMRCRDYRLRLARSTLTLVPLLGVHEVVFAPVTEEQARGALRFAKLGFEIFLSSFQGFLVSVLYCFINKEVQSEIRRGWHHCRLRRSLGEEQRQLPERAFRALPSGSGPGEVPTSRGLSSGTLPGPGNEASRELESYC

B1: Compound 80 (peptide)
peptide: Y[Aib]EGTFTSDYSILLEEQAAREFIEWLLAGGPSSGEASHLSTAQTQRLSAELHRLK([AEEA-AEEA-γGlu-C18 diacid])TLPRTETGSGSP-NH2
B2: Compound 71 (peptide)
peptide: H[Aib]HGTFTSDYSILLEEQAAREFIEWLLAGGPSRGAPPPSGGGEASHLSTQTQGRLSAELHK([AEEA-AEEA-γGlu-C18 diacid])LATLPRTETGSGSP-NH2
B3: Compound 81 (peptide)
peptide: Y[Aib]EGTFTSDYSILLEEQAAREFIEWLLAGGPSSGEASHLSTAQTQRLSAELHRLATLPK([AEEA-AEEA-γGlu-C18 diacid])TETGSGSP-NH2
B4: Compound 83 (peptide)
peptide: H[Aib]HGTFTSDYSILLEEQAAREFIEWLLAGGPSSGEASHLSTAQTQRLSAELHRLK([AEEA-AEEA-γGlu-C18 diacid])TLPRTETGSGSP-NH2
B5: Compound 82 (peptide)
peptide: H[Aib]HGTFTSDYSILLEEQAAREFIEWLLAGGPSSGEASHLSTAQTQRLSAK([AEEA-AEEA-γGlu-C18 diacid])LHRLATLPRTETGSGSP-NH2
B6: Compound 74 (peptide)
peptide: Y[Aib]EGTFTSDYSILLEEQAAREFIEWLLAGGPSGGEASHLSTAQTQRLSAELHK([AEEA-AEEA-γGlu-C18 diacid])LATLPRTETGSGSP-NH2
B7: Compound 78 (peptide)
peptide: H[Aib]HGTFTSDYSILLEEQAAREFIEWLLAGGPSSGAGQAPGQAPGASHLSTAQTQRLSAK([AEEA-AEEA-γGlu-C18 diacid])LHRLATLPRTETGSGSP-NH2
B8: Compound 76 (peptide)
peptide: Y[Aib]EGTFTSDYSILLEEQAAREFIEWLLAGGPSSGAGQAPGQAPGASHLSTAQTQRLSAELHRLATLPK([AEEA-AEEA-γGlu-C20 diacid])TETGSGSP-NH2
B9: Compound 73 (peptide)
peptide: H[Aib]HGTFTSDYSILLEEQAAREFIEWLLAGGPSK([AEEA-AEEA-γGlu-C18 diacid])GEASQLSTAALGRLSAELHRLATLPRTETGSGSP-NH2
B10: Compound 69 (peptide)
peptide: H[Aib]HGTFTSDYSILLEEQAAREFIEWLLAGGPSRGEASHLSTAQTQRLSAELHK([AEEA-AEEA-γGlu-C18 diacid])LATLPRTETGSGSP-NH2
B11: Compound 72 (peptide)
peptide: Y[Aib]EGTFTSDYSILLEEQAAREFIEWLLAGGPSRGAPPPSGGGEASHLSTQTQGRLSAELHK([AEEA-AEEA-γGlu-C18 diacid])LATLPRTETGSGSP-NH2
B12: Compound 84 (peptide)
peptide: H[Aib]HGTFTSDYSILLEEQAAREFIEWLLAGGPSSGEASHLSTAQTQRLSAELHRLATLPK([AEEA-AEEA-γGlu-C18 diacid])TETGSGSP-NH2
B13: Compound 75 (peptide)
peptide: H[Aib]HGTFTSDYSILLEEQAAREFIEWLLAGGPSGGEASHLSTAQTQRLSAELHK([AEEA-AEEA-γGlu-C18 diacid])LATLPRTETGSGSP-NH2
B14: Compound 68 (peptide)
peptide: Y[Aib]EGTFTSDYSILLEEQAAREFIEWLLAGGPSRGEASHLSTAQTQRLSAELHK([AEEA-AEEA-γGlu-C18 diacid])LATLPRTETGSGSP-NH2
B15: Compound 77 (peptide)
peptide: Y[Aib]EGTFTSDYSILLEEQAAREFIEWLLAGGPSSGAGQAPGQAPLASHLSTAQTQRLSAELHK([AEEA-AEEA-γGlu-C20 diacid])LATLPRTETGSGSP-NH2
B16: Compound 70 (peptide)
peptide: H[Aib]HGTFTSDYSILLEEQAAREFIEWLLAGGPSRGAPPPSGGGEASELSTAALGRLSAELHK([AEEA-AEEA-γGlu-C18 diacid])LATLPRTETGSGSP-NH2
B17: Compound 79 (peptide)
peptide: Y[Aib]EGTFTSDYSILLEEQAAREFIEWLLAGGPSSGEASHLSTAQTQRLSAK([AEEA-AEEA-γGlu-C18 diacid])LHRLATLPRTETGSGSP-NH2

Assays:
Experiment in all cases: cell-based or functional assay
[1] = target: T1, human amylin-3(a) receptor
[2] = target: T2, human GIP receptor
[3] = target: T3, human GLP-1 receptor (human, UniProt P43220 24-463)
[4] = target: T1, human amylin-3(a) receptor; remark: listed apart in the source
[5] = target: T2, human GIP receptor; remark: listed apart in the source
[6] = target: T3, human GLP-1 receptor; remark: listed apart in the source

| Binder | hAMYR3 Potency, no HSA, EC50 [pM] [1] | hGIPR Potency, no HSA, EC50 [pM] [2] | hGLP-1R Potency, no HSA, EC50 [pM] [3] | hAMYR3 Potency, 1% HSA, EC50 [pM] [4] | hGIPR Potency, 1% HSA, EC50 [pM] [5] | hGLP-1R Potency, 1% HSA, EC50 [pM] [6] |
| --- | --- | --- | --- | --- | --- | --- |
| B1 | 3.23 pM | 4.01 pM | 24.8 pM | 62.4 pM | 20.2 pM | 111 pM |
| B2 | 8.66 pM | 2.77 pM | 3.34 pM | 274 pM | 9.28 pM | 18.4 pM |
| B3 | 4.07 pM | 3.31 pM | 16 pM | 188 pM | 15.8 pM | 51.4 pM |
| B4 | 2.9 pM | 2.92 pM | 2.3 pM | 45.7 pM | 13.6 pM | 9.89 pM |
| B5 | 3.26 pM | 3.7 pM | 3.45 pM | 38 pM | 19.1 pM | 24.2 pM |
| B6 | 2.73 pM | 2.51 pM | 29.8 pM | 134 pM | 18.7 pM | 141 pM |
| B7 | 1.83 pM | 3.49 pM | 4.03 pM | 17.1 pM | 10.4 pM | 17.8 pM |
| B8 | 3.11 pM | 2.82 pM | 19.9 pM | 430 pM | 11.1 pM | 63.6 pM |
| B9 | 1.99 pM | 4.98 pM | 4.55 pM | 61.5 pM | 96.5 pM | 54.1 pM |
| B10 | 3.43 pM | 1.9 pM | 3.45 pM | 78.9 pM | 8.05 pM | 20.4 pM |
| B11 | 6.57 pM | 2.12 pM | 13.1 pM | 589 pM | 9.79 pM | 41.7 pM |
| B12 | 4.41 pM | 3 pM | 3.31 pM | 175 pM | 11.6 pM | 25.9 pM |
| B13 | 2.49 pM | 2.65 pM | 3.66 pM | 110 pM | 11.9 pM | 25.2 pM |
| B14 | 2.57 pM | 1.83 pM | 12.1 pM | 230 pM | 11.9 pM | 51.9 pM |
| B15 | 3.13 pM | 2.53 pM | 19.7 pM | 382 pM | 13.4 pM | 51.4 pM |
| B16 | 4.53 pM | 5.89 pM | 3.48 pM | 59.4 pM | 19.1 pM | 18.4 pM |
| B17 | 3.53 pM | 4.7 pM | 38.7 pM | 53.4 pM | 24.7 pM | 168 pM |
